Measured values as given in paper PMC4663267, “A Novel C-Terminal Domain of RecJ is Critical for Interaction with HerA in Deinococcus radiodurans”.

Legend:
DrRecJ;DrHerA = molecular target: T1, DrRecJ;DrHerA (Deinococcus radiodurans;Deinococcus …, UniProt D0EM60;Q9RW32 1-705;1-618, |); test: EMSA; HerA hexamer:RecJ 8:1; super-shift, RecJ binding enhanced; EMSA: 100 nM DNA, 80 mM NaCl, 20 mM Tris-HCl pH 7.5, 1 mM DTT, 30 C, 10 min, 5% TBE native PAGE; details: protein: recombinant;recombinant; tags: HMT (His6-MBP) tag removed by TEV;N-terminal His6; copies: 1;6; label: 5' FAM; single strand
T1 sequence 1: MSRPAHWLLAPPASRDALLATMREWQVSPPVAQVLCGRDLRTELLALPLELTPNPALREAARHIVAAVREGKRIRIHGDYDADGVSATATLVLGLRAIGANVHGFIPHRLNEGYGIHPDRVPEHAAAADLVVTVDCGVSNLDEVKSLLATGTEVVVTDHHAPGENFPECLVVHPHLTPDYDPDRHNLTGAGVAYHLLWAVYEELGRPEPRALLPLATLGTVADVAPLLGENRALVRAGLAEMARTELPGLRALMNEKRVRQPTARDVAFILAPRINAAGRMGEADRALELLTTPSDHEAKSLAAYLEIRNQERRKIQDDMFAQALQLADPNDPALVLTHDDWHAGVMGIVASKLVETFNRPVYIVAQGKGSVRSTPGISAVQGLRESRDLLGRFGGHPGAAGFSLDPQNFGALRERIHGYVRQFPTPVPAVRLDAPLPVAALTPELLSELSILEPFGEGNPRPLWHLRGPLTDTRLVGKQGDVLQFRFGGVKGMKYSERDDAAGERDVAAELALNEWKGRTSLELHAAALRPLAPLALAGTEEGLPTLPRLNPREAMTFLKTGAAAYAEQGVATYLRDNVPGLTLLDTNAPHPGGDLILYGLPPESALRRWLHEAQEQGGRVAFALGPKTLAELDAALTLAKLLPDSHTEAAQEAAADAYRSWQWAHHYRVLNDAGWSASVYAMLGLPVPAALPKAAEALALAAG
T1 sequence 2: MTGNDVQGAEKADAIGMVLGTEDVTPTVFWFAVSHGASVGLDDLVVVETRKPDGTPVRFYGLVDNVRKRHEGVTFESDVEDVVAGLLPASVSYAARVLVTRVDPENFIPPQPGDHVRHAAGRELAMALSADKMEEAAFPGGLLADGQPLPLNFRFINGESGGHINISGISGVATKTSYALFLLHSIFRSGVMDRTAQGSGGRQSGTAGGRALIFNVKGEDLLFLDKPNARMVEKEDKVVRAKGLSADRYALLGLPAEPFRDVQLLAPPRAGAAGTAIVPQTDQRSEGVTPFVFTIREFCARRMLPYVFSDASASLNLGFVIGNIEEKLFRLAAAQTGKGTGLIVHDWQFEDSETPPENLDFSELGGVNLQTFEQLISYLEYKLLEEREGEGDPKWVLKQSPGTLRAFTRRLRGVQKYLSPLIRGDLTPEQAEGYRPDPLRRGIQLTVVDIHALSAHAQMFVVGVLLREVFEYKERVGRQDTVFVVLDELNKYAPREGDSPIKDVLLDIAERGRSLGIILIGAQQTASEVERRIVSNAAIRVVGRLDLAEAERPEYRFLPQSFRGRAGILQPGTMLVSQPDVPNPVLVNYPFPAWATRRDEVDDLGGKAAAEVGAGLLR

DrRecJ;DrHerAΔN = molecular target: T2, DrRecJ;DrHerAΔN (Deinococcus radiodurans;Deinococcus …, UniProt D0EM60;Q9RW32 1-705;136-618, |); test: EMSA; with 4 uM DrNurA (dimer, P6), 800 nM HerAΔN hexamer; stimulation not decreased; EMSA: 100 nM DNA, 80 mM NaCl, 20 mM Tris-HCl pH 7.5, 1 mM DTT, 30 C, 10 min, 5% TBE native PAGE; details: protein: recombinant;recombinant; tags: HMT (His6-MBP) tag removed by TEV;N-terminal His6; copies: 1;6; label: 5' FAM; single strand
T2 sequence 1: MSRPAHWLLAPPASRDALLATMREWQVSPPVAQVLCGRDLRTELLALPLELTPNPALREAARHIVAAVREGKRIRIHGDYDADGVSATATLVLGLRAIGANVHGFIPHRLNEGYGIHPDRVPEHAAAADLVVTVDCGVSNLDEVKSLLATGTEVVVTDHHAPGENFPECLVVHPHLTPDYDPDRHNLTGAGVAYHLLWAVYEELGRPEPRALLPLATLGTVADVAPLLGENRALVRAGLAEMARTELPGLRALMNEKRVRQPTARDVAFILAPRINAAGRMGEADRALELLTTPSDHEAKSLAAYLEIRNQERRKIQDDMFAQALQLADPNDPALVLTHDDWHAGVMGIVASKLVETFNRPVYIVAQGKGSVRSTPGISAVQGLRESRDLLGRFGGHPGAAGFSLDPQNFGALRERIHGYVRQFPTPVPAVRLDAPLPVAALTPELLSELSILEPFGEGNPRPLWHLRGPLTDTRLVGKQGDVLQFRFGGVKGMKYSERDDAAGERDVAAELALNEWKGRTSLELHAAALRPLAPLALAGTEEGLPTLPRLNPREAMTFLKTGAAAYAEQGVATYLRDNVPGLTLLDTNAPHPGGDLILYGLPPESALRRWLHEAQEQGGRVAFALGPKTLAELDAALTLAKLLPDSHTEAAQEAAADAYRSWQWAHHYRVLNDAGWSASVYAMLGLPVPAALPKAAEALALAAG
T2 sequence 2: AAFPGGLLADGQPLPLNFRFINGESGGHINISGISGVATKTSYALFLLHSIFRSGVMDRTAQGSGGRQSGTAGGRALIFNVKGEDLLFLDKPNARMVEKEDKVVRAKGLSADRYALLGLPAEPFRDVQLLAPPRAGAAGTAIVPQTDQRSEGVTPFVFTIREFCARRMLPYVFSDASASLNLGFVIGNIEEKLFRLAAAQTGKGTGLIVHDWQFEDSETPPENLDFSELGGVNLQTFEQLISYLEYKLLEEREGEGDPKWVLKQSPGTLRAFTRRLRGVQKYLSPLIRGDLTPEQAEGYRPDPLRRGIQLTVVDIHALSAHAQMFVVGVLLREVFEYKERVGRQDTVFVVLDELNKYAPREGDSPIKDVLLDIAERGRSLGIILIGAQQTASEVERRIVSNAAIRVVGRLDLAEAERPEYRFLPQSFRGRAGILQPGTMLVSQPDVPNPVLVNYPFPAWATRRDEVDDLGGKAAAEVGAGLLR

AAAAAAAAAA (ssDNA) [O1 (10 nt ssDNA)]: binds (DrRecJ;DrHerA); binds (DrRecJ;DrHerAΔN).
